Our source for the protein stability index values is the supplement of paper PMC10567573.

The labels stand for the following.
B1: TAF7L (parent)
chain: PDVENEVKRLLRSDAEAVSTRWEV
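Note: lentivirally expressed fusions sorted by FACS into six bins by GFP to DsRed ratio, PSI derived from sequencing read proportions per bin multiplied by bin number.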

Variants of B1 are the subject of the series. Description: protein stability index of a GFP-peptide fusion (GPS, HEK-293T) (PSI 1-6); higher = more stable. The settings on record: c terminus: a fixed tail appended.
In the case of PDVENEVKRLLRSDTEAVSTRWEV [A15T], the protein stability index stood at 1.9.
As to PDVENEVKRLLRSDREAVSTRWEV [A15R], the protein stability index was found to be 2.99.
In the case of PDVENEVKRLLRSDQEAVSTRWEV [A15Q], the protein stability index was found to be 3.46.
Consider PDVENEVKRLLRSDWEAVSTRWEV [A15W], for which the protein stability index is 2.93.
As for PDVENEVKRLLRSDHEAVSTRWEV [A15H], the protein stability index stood at 3.88.
The same measure for PDVENEVKRLLRSDLEAVSTRWEV [A15L]: 3.58; for PDVENEVKRLLRSDPEAVSTRWEV [A15P]: 3.19; for PDVENEVKRLLRSDGEAVSTRWEV [A15G]: 3.97.
In the case of PDVENEVKRLLRSDFEAVSTRWEV [A15F] it was 2.57; in that of PDVENEVKRLLRSDEEAVSTRWEV [A15E], 4.36.
Consider PDVENEVKRLLRSDVEAVSTRWEV [A15V], for which the protein stability index stood at 3.02.
The same measure for PDVENEVKRLLRSDYEAVSTRWEV [A15Y]: 3.51.
For the variant PDVENEVKRLLRSDSEAVSTRWEV [A15S], the protein stability index was 3.22.
Turning to PDVENEVKRLLRSDNEAVSTRWEV [A15N], the protein stability index is 3.54.
Consider PDVENEVKRLLRSDDEAVSTRWEV [A15D], for which the protein stability index worked out at 4.09.
For PDVENEVKRLLRSDAETVSTRWEV [A17T], the protein stability index was 2.71.
Take PDVENEVKRLLRSDAENVSTRWEV [A17N]: the protein stability index turned out to be 3.61.
In the case of PDVENEVKRLLRSDAEPVSTRWEV [A17P], the protein stability index came out at 3.28.
In the case of PDVENEVKRLLRSDAESVSTRWEV [A17S] it was 3.93; in that of PDVENEVKRLLRSDAEGVSTRWEV [A17G], 3.69.
In the case of PDVENEVKRLLRSDAEFVSTRWEV [A17F] it was 2.64; in that of PDVENEVKRLLRSDAEVVSTRWEV [A17V], 3.35; in that of PDVENEVKRLLRSDAECVSTRWEV [A17C], 3.54.
Turning to PDVENEVKRLLRSDAEAVFTRWEV [S19F], the protein stability index amounted to 2.73.
In the case of PDVENEVKRLLRSDAEAVMTRWEV [S19M] it was 2.48.
Consider PDVENEVKRLLRSDAEAVGTRWEV [S19G], for which the protein stability index was found to be 3.54.
For the variant PDVENEVKRLLRSDAEAVPTRWEV [S19P], the protein stability index worked out at 3.75.
The same measure for PDVENEVKRLLRSDAEAVHTRWEV [S19H]: 3.18.
Consider PDVENEVKRLLRSDAEAVYTRWEV [S19Y], for which the protein stability index is 2.08.
In the case of PDVENEVKRLLRSDAEAVITRWEV [S19I], the protein stability index turned out to be 3.03.
Turning to PDVENEVKRLLRSDAEAVSHRWEV [T20H], the protein stability index worked out at 2.22.
In the case of PDVENEVKRLLRSDAEAVSQRWEV [T20Q] it was 3.34.
Regarding PDVENEVKRLLRSDAEAVSSRWEV [T20S], the protein stability index came out at 3.32.
Regarding PDVENEVKRLLRSDAEAVSRRWEV [T20R], the protein stability index worked out at 3.29.
The same measure for PDVENEVKRLLRSDAEAVSFRWEV [T20F]: 2.74; for PDVENEVKRLLRSDAEAVSIRWEV [T20I]: 2.12; for PDVENEVKRLLRSDAEAVSDRWEV [T20D]: 2.76.
Take PDVENEVKRLLRSDAEAVSMRWEV [T20M]: the protein stability index is 2.26.
Turning to PDVENEVKRLLRSDAEAVSERWEV [T20E], the protein stability index is 3.99.
The same measure for PDVENEVKRLLRSDAEAVSNRWEV [T20N]: 3.28; for PDVENEVKRLLRSDAEAVSPRWEV [T20P]: 2.15; for PDVENEVKRLLRSDAEAVSVRWEV [T20V]: 2.39.
As to PDVENEVKRLLRSDAEAVSYRWEV [T20Y], the protein stability index is 2.43.
In the case of PDVENEVKRLLRSDAEAVSARWEV [T20A] it was 4.18; in that of PDVENEVKRLLRSDAEAVSLRWEV [T20L], 2.29; in that of PDVENEVKRLLRSDAEAVSKRWEV [T20K], 3.85.
For PDVENEVKRLLRQDAEAVSTRWEV [S13Q], the protein stability index was 2.09.
PDVENEVKRLLRHDAEAVSTRWEV [S13H]: the protein stability index is 2.53.
Turning to PDVENEVKRLLRMDAEAVSTRWEV [S13M], the protein stability index came to 3.54.
Consider PDVENEVKRLLRNDAEAVSTRWEV [S13N], for which the protein stability index is 3.53.
For the variant PDVENEVKRLLRIDAEAVSTRWEV [S13I], the protein stability index turned out to be 3.29.
On to PDVENEVKRLLRPDAEAVSTRWEV [S13P], for which the protein stability index was determined as 4.71.
PDVENEVKRLLRYDAEAVSTRWEV [S13Y]: the protein stability index came out at 2.87.
On to PDVENEVKRLLRGDAEAVSTRWEV [S13G], for which the protein stability index came out at 3.02.
For the variant PDVENEVKRLLRKDAEAVSTRWEV [S13K], the protein stability index is 3.76.
Regarding PDVENEVKRLLRSDAEATSTRWEV [V18T], the protein stability index was found to be 3.83.
Consider PDVENEVKRLLRSDAEAQSTRWEV [V18Q], for which the protein stability index is 3.9.
Turning to PDVENEVKRLLRSDAEAGSTRWEV [V18G], the protein stability index was found to be 4.29.
PDVENEVKRLLRSDAEAESTRWEV [V18E]: the protein stability index is 4.54.
PDVENEVKRLLRSDAEAFSTRWEV [V18F]: the protein stability index came out at 2.31.
Take PDVENEVKRLLRSDAEAYSTRWEV [V18Y]: the protein stability index was 3.37.
With PDVENEVKRLLRSDAEAMSTRWEV [V18M], the protein stability index worked out at 4.78.
As to PDVENEVKRLLRSDAEAPSTRWEV [V18P], the protein stability index amounted to 3.31.
PDVENEVKRLLRSDAEAWSTRWEV [V18W]: the protein stability index came to 2.22.
As for PDVENEVKRLLRSDAEAKSTRWEV [V18K], the protein stability index is 2.9.
Regarding PDVENEVKRLLRSDASAVSTRWEV [E16S], the protein stability index was 3.17.
The same measure for PDVENEVKRLLRSDAYAVSTRWEV [E16Y]: 1.46; for PDVENEVKRLLRSDAQAVSTRWEV [E16Q]: 3.22.
The same measure for PDVENEVKRLLRSDAHAVSTRWEV [E16H]: 2.9; for PDVENEVKRLLRSDAIAVSTRWEV [E16I]: 2.08; for PDVENEVKRLLRSDAFAVSTRWEV [E16F]: 2.27.
As to PDVENEVKRLLRSDACAVSTRWEV [E16C], the protein stability index was 2.01.
For PDVENEVKRLLRSDAKAVSTRWEV [E16K], the protein stability index came to 2.65.
Take PDVENEVKRLLRSDARAVSTRWEV [E16R]: the protein stability index stood at 2.12.
For PDVENEVKRLLRSDATAVSTRWEV [E16T], the protein stability index worked out at 2.77.
As to PDVENEVKRLLRSDADAVSTRWEV [E16D], the protein stability index came out at 3.74.
With PDVENEVKRLLRSDAPAVSTRWEV [E16P], the protein stability index was 3.18.
On to PDVENEVKRLLRSDALAVSTRWEV [E16L], for which the protein stability index stood at 2.73.
For PDVENEVKRLLRSDAMAVSTRWEV [E16M], the protein stability index worked out at 1.71.
PDVENEVKRLLRSPAEAVSTRWEV [D14P]: the protein stability index is 2.13.
For the variant PDVENEVKRLLRSHAEAVSTRWEV [D14H], the protein stability index came out at 3.25.
The same measure for PDVENEVKRLLRSRAEAVSTRWEV [D14R]: 2.38; for PDVENEVKRLLRSSAEAVSTRWEV [D14S]: 2.26.
As for PDVENEVKRLLRSMAEAVSTRWEV [D14M], the protein stability index was 3.06.
The same measure for PDVENEVKRLLRSNAEAVSTRWEV [D14N]: 2.75.
On to PDVENEVKRLLRSTAEAVSTRWEV [D14T], for which the protein stability index amounted to 2.12.
With PDVENEVKRLLRSWAEAVSTRWEV [D14W], the protein stability index was 1.48.
In the case of PDVENEVKRLLRSYAEAVSTRWEV [D14Y], the protein stability index was determined as 1.45.
For PDVENEVKRLLRSLAEAVSTRWEV [D14L], the protein stability index is 1.77.
As for PDVENEVKRLLRSAAEAVSTRWEV [D14A], the protein stability index is 1.97.
On to PDVENEVKRLLRSDAEAVSTCWEV [R21C], for which the protein stability index was found to be 2.61.
In the case of PDVENEVKRLLRSDAEAVSTEWEV [R21E] it was 5.41.
In the case of PDVENEVKRLLRSDAEAVSTDWEV [R21D] it was 5.01.
In the case of PDVENEVKRLLRSDAEAVSTAWEV [R21A], the protein stability index was 3.19.
